The target in experiment [1] is T1, recombinant cynomolgus CLL-1 extracellular domain (ECD, amino acids 65-265) fused to an N-terminal Flag (cynomolgus monkey).
T1 construct: Construct stated for the immunogen; also called CynoCLL-1 Flag; cynoCLL-1
T1 chain: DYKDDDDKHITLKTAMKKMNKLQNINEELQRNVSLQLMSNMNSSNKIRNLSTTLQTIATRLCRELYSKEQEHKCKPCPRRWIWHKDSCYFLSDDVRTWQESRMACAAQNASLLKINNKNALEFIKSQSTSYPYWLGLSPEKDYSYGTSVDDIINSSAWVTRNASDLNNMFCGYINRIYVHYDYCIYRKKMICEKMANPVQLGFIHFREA
The experiment is described as follows: SPR (Biacore T200), IgG captured by anti-human Fc, CLL-1 as analyte. For orientation: In SPR one partner is held on a chip, and binding of the other changes the refractive index at the surface.

In experiment [2] the target is T2, recombinant human CLL-1 extracellular domain (ECD, amino acids 65-265) fused to an N-terminal Flag (human, UniProt Q5QGZ9 65-265).
T2 construct: The construct and the K244Q SNP are stated for the immunogen; they are not written as a piece; also called huCLL-1-Flag; huCLL-1
T2 chain: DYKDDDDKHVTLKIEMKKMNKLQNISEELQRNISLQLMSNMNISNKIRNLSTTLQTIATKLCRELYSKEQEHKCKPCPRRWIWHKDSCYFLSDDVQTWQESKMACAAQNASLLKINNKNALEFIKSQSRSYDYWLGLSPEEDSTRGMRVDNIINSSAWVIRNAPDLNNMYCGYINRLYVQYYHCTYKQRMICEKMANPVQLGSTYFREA
Described as above.

Experiment [3] has as its target T2, recombinant human CLL-1 extracellular …. Description: SPR (Biacore T200), IgG captured by anti-human Fc, human CLL-1 as analyte. On the procedure:
The binding affinity of the antibodies in this section was determined by BIAcore™ T200 Format. Briefly, BIAcore™ research grade CM5 chips were activated with 1-ethyl-3-(3-dimethylaminopropyl) carbodiimide (EDC) and N-hydroxysuccinimide (NHS) reagents according to the supplier's instructions. Goat anti-human Fc IgGs were coupled to the chips to achieve approximately 10,000 response units (RU) in each flow cell. Unreacted coupling groups were blocked with 1M ethanolamine. For kinetics measurements, antibodies were captured to achieve approximately 300 RU. Three-fold serial dilutions of human CLL-1 was injected in HBS-P buffer (0.01M HEPES pH7.4, 0.15M NaCl, 0.005% surfactant P20) at 25° C. with a flow rate of 30 μl/min. Association rates (kon) and dissociation rates (koff) were calculated using a 1:1 Langmuir binding model (BIAcore™ T200 Evaluation Software version 2.0). The equilibrium dissociation constant (Kd) was calculated as the ratio koff/kon.

Experiment [4] addresses T3, human CLL-1 on cells (endogenous on HL-60, EOL-1 and other AML cell lines and CD14+ monocytes); recombinant on … (human, UniProt Q5QGZ9 1-265).
T3 sequence: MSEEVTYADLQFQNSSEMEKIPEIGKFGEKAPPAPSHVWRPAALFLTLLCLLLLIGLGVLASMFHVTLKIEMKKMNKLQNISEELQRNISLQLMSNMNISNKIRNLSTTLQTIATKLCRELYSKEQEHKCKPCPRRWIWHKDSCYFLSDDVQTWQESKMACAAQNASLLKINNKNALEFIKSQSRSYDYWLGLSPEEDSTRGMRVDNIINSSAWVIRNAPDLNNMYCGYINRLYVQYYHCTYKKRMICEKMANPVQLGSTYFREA
Description: cell-based or functional assay.

The target of experiment [5] is T3, human CLL-1 on cells (endogenous on …). The experiment is described as follows: cell-based or functional assay. This is another data set of the same source.
Experiment [6] has the same target. Description: cell-based or functional assay. The source holds these as a separate data set.
In experiment [7] the target is T4, hCD3ε (human, UniProt P07766 23-126).
T4 construct: Also used for the value printed only as 'hCD3 (0.05 nM'); also called human CD3ε polypeptide
T4 sequence (P07766 23-126): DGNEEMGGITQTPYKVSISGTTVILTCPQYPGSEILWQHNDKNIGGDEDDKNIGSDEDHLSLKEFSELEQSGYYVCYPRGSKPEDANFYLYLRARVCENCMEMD
Description: SPR (Biacore), Fab.

The results in this text go back to patent publication US20200148774A1 (Genentech, published 2020).

B1: 6E7.L4H1eE54 (antibody, V domains shown)
VH: EVQLVQSGAEVKKPGASVKVSCKASGYSFTDYYMHWVRQAPGQGLEWIGRINPYEGAAFYSQNFKDRVTLTVDTSTSTAYLELSSLRSEDTAVYYCAIERGADLEGYAMDYWGQGTLVTVSS
VL: DIQMTQSPSSLSASVGDRVTITCRASQSVSTSSYNYMHWYQQKPGKPPKLLIKYASNLESGVPSRFSGSGSGTDFTLTISSLQPEDFATYYCQHSWEIPLTFGQGTKVEIK
notes: IgG
As to B1, in experiment [1], the Kd – broadly, the equilibrium constant for the complex coming apart – turned out to be 4.26 nM; the koff (as a rule, the first-order rate constant of dissociation) was found to be 0.00283 s⁻¹; the kon (commonly the rate constant with which the complex forms) amounted to 664000 M⁻¹ s⁻¹. For the same molecule, in experiment [2], the Kd is 5.09 nM, the koff came to 0.00248 s⁻¹ and the kon was found to be 488000 M⁻¹ s⁻¹.

B2: humanized 6E7 variant CDRs graft+K49(LC)+(A67, L69, V71, K73 (HC)) (antibody, V domains shown)
VH: EVQLVQSGAEVKKPGASVKVSCKASGYSFTDYYMHWVRQAPGQGLEWIGRINPYNGAAFYSQNFKDRATLTVDKSTSTAYLELSSLRSEDTAVYYCAIERGADLEGYAMDYWGQGTLVTVSS
VL: DIQMTQSPSSLSASVGDRVTITCRASQSVSTSSYNYMHWYQQKPGKPPKLLIKYASNLESGVPSRFSGSGSGTDFTLTISSLQPEDFATYYCQHSWEIPLTFGQGTKVEIK
Turning to B2, in experiment [3], the Kd stood at 1.4 nM.

B3: 6E7.L4H1eS54 (antibody, V domains shown)
VH: EVQLVQSGAEVKKPGASVKVSCKASGYSFTDYYMHWVRQAPGQGLEWIGRINPYSGAAFYSQNFKDRVTLTVDTSTSTAYLELSSLRSEDTAVYYCAIERGADLEGYAMDYWGQGTLVTVSS
VL: DIQMTQSPSSLSASVGDRVTITCRASQSVSTSSYNYMHWYQQKPGKPPKLLIKYASNLESGVPSRFSGSGSGTDFTLTISSLQPEDFATYYCQHSWEIPLTFGQGTKVEIK
notes: IgG
For the molecule B3, in experiment [1], the Kd was 6.37 nM, the koff was found to be 0.00327 s⁻¹ and the kon turned out to be 513000 M⁻¹ s⁻¹. For the same molecule, in experiment [2], the Kd was determined as 14.1 nM, the koff was found to be 0.0072 s⁻¹ and the kon was 510000 M⁻¹ s⁻¹.

B4: h21C9 (h21C9.L2H3)×38E4v1 TDB (bispecific antibody, V domains shown)
VH 1: EVQLVQSGAEVKKPGASVKVSCKASGYTFTDYYLDWVRQAPGQGLEWIGRVNPYNGGTIYNQKFKGRVTLTRDTSTSTAYLELSSLRSEDTAVYYCARDHYRYDPLLDYWGQGTLVTVSS
VL 1: DIQMTQSPSSLSASVGDRVTITCKASQDVSTAVAWFQQKPGKAPKLLIYSPSYRYTGVPSRFSGSGSGTDFTLTISSLQPEDFATYYCQQLYSTPYTFGQGTKVEIK
VH 2: EVQLVQSGAEVKKPGASVKVSCKASGFTFTSYYIHWVRQAPGQGLEWIGWIYPENDNTKYNEKFKDRVTITADTSTSTAYLELSSLRSEDTAVYYCARDGYSRYYFDYWGQGTLVTVSS
VL 2: DIVMTQSPDSLAVSLGERATINCKSSQSLLNSRTRKNYLAWYQQKPGQSPKLLIYWTSTRKSGVPDRFSGSGSGTDFTLTISSLQAEDVAVYYCKQSFILRTFGQGTKVEIK
As to B4, in experiment [4], the “average killing EC50, EOL-1” value was 0.0511 µg/mL; the “average killing EC50, HL-60” value is 1.76 µg/mL; the “average killing EC50, human autologous CD14+” value was 14.8 ng/ml. In addition, the “EC50 of killing of EOL-1 (other donors)” value in experiment [5] turned out to be 0.0163 µg/mL.

B5: 6E7.L4H1eA54×38E4v1 TDB (bispecific antibody, V domains shown)
VH 1: EVQLVQSGAEVKKPGASVKVSCKASGYSFTDYYMHWVRQAPGQGLEWIGRINPYAGAAFYSQNFKDRVTLTVDTSTSTAYLELSSLRSEDTAVYYCAIERGADLEGYAMDYWGQGTLVTVSS
VL 1: DIQMTQSPSSLSASVGDRVTITCRASQSVSTSSYNYMHWYQQKPGKPPKLLIKYASNLESGVPSRFSGSGSGTDFTLTISSLQPEDFATYYCQHSWEIPLTFGQGTKVEIK
VH 2: EVQLVQSGAEVKKPGASVKVSCKASGFTFTSYYIHWVRQAPGQGLEWIGWIYPENDNTKYNEKFKDRVTITADTSTSTAYLELSSLRSEDTAVYYCARDGYSRYYFDYWGQGTLVTVSS
VL 2: DIVMTQSPDSLAVSLGERATINCKSSQSLLNSRTRKNYLAWYQQKPGQSPKLLIYWTSTRKSGVPDRFSGSGSGTDFTLTISSLQAEDVAVYYCKQSFILRTFGQGTKVEIK
Turning to B5, in experiment [6], the “Cell killing EC50 (EOL-1 cells, human CD8+ T cells)” value came out at 0.034 µg/mL.

B6: 21C9.L2H3D54 (antibody, V domains shown)
VH: EVQLVQSGAEVKKPGASVKVSCKASGYTFTDYYLDWVRQAPGQGLEWIGRVNPYDGGTIYNQKFKGRVTLTRDTSTSTAYLELSSLRSEDTAVYYCARDHYRYDPLLDYWGQGTLVTVSS
VL: DIQMTQSPSSLSASVGDRVTITCKASQDVSTAVAWFQQKPGKAPKLLIYSPSYRYTGVPSRFSGSGSGTDFTLTISSLQPEDFATYYCQQLYSTPYTFGQGTKVEIK
With B6, in experiment [1], the Kd turned out to be 217 nM, the koff came out at 0.00885 s⁻¹ and the kon turned out to be 40700 M⁻¹ s⁻¹.

B7: 21C9.L2H3S54 (antibody, V domains shown)
VH: EVQLVQSGAEVKKPGASVKVSCKASGYTFTDYYLDWVRQAPGQGLEWIGRVNPYSGGTIYNQKFKGRVTLTRDTSTSTAYLELSSLRSEDTAVYYCARDHYRYDPLLDYWGQGTLVTVSS
VL: DIQMTQSPSSLSASVGDRVTITCKASQDVSTAVAWFQQKPGKAPKLLIYSPSYRYTGVPSRFSGSGSGTDFTLTISSLQPEDFATYYCQQLYSTPYTFGQGTKVEIK
Take B7: in experiment [1], the Kd is 5670 nM, the koff stood at 0.0207 s⁻¹ and the kon worked out at 3660 M⁻¹ s⁻¹. Moreover, in experiment [2], the Kd was 286 nM, the koff was found to be 0.0405 s⁻¹ and the kon amounted to 142000 M⁻¹ s⁻¹.

B8: 21C9.L2H3A54 (antibody, V domains shown)
VH: EVQLVQSGAEVKKPGASVKVSCKASGYTFTDYYLDWVRQAPGQGLEWIGRVNPYAGGTIYNQKFKGRVTLTRDTSTSTAYLELSSLRSEDTAVYYCARDHYRYDPLLDYWGQGTLVTVSS
VL: DIQMTQSPSSLSASVGDRVTITCKASQDVSTAVAWFQQKPGKAPKLLIYSPSYRYTGVPSRFSGSGSGTDFTLTISSLQPEDFATYYCQQLYSTPYTFGQGTKVEIK
In the case of B8, in experiment [1], the Kd worked out at 48200 nM, the koff is 0.0215 s⁻¹ and the kon was 445 M⁻¹ s⁻¹. Further, in experiment [2], the Kd came out at 622 nM, the koff was 0.0692 s⁻¹ and the kon turned out to be 111000 M⁻¹ s⁻¹.

B9: humanized 21C9 variant CDRs graft+(F36 and S43(LC))+L69 (HC) (antibody, V domains shown)
VH: EVQLVQSGAEVKKPGASVKVSCKASGYTFTDYYLDWVRQAPGQGLEWIGRVNPYNGGTIYNQKFKGRVTLTRDTSTSTAYLELSSLRSEDTAVYYCARDHYRYDPLLDYWGQGTLVTVSS
VL: DIQMTQSPSSLSASVGDRVTITCKASQDVSTAVAWFQQKPGKSPKLLIYSPSYRYTGVPSRFSGSGSGTDFTLTISSLQPEDFATYYCQQLYSTPYTFGQGTKVEIK
As for B9, the Kd in experiment [3] was 10.5 nM.

B10: 21C9.L2H3E54 (antibody, V domains shown)
VH: EVQLVQSGAEVKKPGASVKVSCKASGYTFTDYYLDWVRQAPGQGLEWIGRVNPYEGGTIYNQKFKGRVTLTRDTSTSTAYLELSSLRSEDTAVYYCARDHYRYDPLLDYWGQGTLVTVSS
VL: DIQMTQSPSSLSASVGDRVTITCKASQDVSTAVAWFQQKPGKAPKLLIYSPSYRYTGVPSRFSGSGSGTDFTLTISSLQPEDFATYYCQQLYSTPYTFGQGTKVEIK
As to B10, in experiment [1], the Kd was determined as 49600 nM, the koff came to 0.0371 s⁻¹ and the kon was found to be 748 M⁻¹ s⁻¹. In experiment [2], the Kd was 862 nM, the koff stood at 0.0882 s⁻¹ and the kon was found to be 102000 M⁻¹ s⁻¹.

B11: 38E4v1 Fab (Fab, V domains shown)
VH: EVQLVQSGAEVKKPGASVKVSCKASGFTFTSYYIHWVRQAPGQGLEWIGWIYPENDNTKYNEKFKDRVTITADTSTSTAYLELSSLRSEDTAVYYCARDGYSRYYFDYWGQGTLVTVSS
VL: DIVMTQSPDSLAVSLGERATINCKSSQSLLNSRTRKNYLAWYQQKPGQSPKLLIYWTSTRKSGVPDRFSGSGSGTDFTLTISSLQAEDVAVYYCKQSFILRTFGQGTKVEIK
notes: Fab; also called 38E4v1 (Fab Biacore measurements)
In experiment [7], B11 had a Kd of 0.389 nM, a koff of 0.00317 s⁻¹ and a kon of 8.15e+06 M⁻¹ s⁻¹.
